The target in this test is CD3 (UniProt P07766). Put plainly: method and format not stated.

B1: CD3B450 (antibody, V domains shown)
VH: QVQLQQSGPGLVKPSQTLSLTCAISGDSVFNNNAAWSWIRQSPSRGLEWLGRTYYRSKWLYDYAVSVKSRITINPDTSKNQFSLQLNSVTPEDTAVYYCARGYSSSFDYWGQGTLVTVSS
VL: QSALTQPASVSGSPGQSITISCTGTSSNIGTYKFVSWYQQHPGKAPKVMIYEVSKRPSGVSNRFSGSKSGNTASLTISGLQAEDEADYYCVSYAGSGTLLFGGGTKLTVL
As a reminder, the Kd is the constant that tells how readily two partners part at equilibrium. A high value points to lower affinity. B1 returned a Kd of 80 nM. This lies in the double-digit nanomolar range.
